In patent publication US8624002B2, “Prostaglandin E2 binding proteins and uses thereof” (AbbVie, Inc., priority 2008, dated 2014):

Columns and labels:
[1] = tested on: mouse collagen-induced arthritis; assay: Collagen-induced arthritis; type: in vivo, DBA/J mice; details: 8 mg/kg, 2×/week, i.p.
Procedure: Type II bovine collagen (lyophilized) was obtained from the University of Utah (Salt Lake City, Utah). Male DBA/J mice (8-10-week-old, Jackson Laboratories, Bar Harbor, Me.) were immunized intradermally at the base of the tail with 100 μL of emulsion containing 100 μg of type II bovine collagen dissolved in 0.1 N of acetic acid and 100 μg of heat-inactivated Mycobacterium tuberculosis H37Ra (Complete Freund's Adjuvant, Difco, Laurence, Kans.). Twenty-one days after immunization with collagen, mice were boosted IP with 1 mg of Zymosan A (Sigma, St. Louis, Mo.). Following the boost, mice were monitored daily for arthritis. Each paw was scored by the following criteria: 0=normal; 1=swelling in one site, foot, or ankle; 2=swelling in foot and ankle; and 3=ankylosis. Scores were summed for each animal, and total average of all animals in each group was expressed as MAS. In addition to clinical scores, mice were also evaluated for paw-edema using Dyer spring calipers model #310-119. […]
Micro-computed tomography was performed on a Scanco μCT-40 unit (Scanco Medical AG) at 60 kVp at 160 μA. The hind paws (stored in 70% ethanol) were secured in imaging tubes and the tarsal bone volume was measured for a 1.8-mm section of the mouse ankle from the base of the tibia to the tarsal/metatarsal joint at a resolution of 18 μm. The raw micro-computed tomography image was then analyzed using the Scanco AG μCT Evaluation program.
For histopathology analysis, formalin-fixed paws were sectioned and stained with Gills 3 hematoxylin (Richard-Allan Scientific, Kalamazoo, Mich.) and eosin with phloxine (Newcomer Supply, Middleton, Mich.). Severity of disease was evaluated histologically using the following criteria: 0=normal; 1=minimal change; 2=mild change; 3=moderate change; and 4=severe change. Scores were summed for each animal, and the total was expressed as an average of all animals in each group.
The therapeutic effects of anti-PGE2 alone was evaluated in mouse (male DBA/1J) collagen-induced arthritis, a standard preclinical model for human rheumatoid arthritis. […]

[2] = ^3H-PGE2 competition ELISA (prostaglandin selectivity); type: binding
Procedure: Alternatively, prostaglandin selectivity was determined using a ^3H-PGE2 competition ELISA. Plates were coated with 50 μL/well of 5 μg/ml of goat anti-human IgG (Fc) (Thermo Scientific # 31170, Hudson, N.H.) or goat anti-mouse IgG (Fc) (Thermo Scientific # 31125, Hudson, N.H.) in PBS and incubated overnight at 4° C. The following day plates were flicked and blotted dry. Plates were blocked with 200 μL/well of Superblock (Thermo Scientific # 37515, Hudson, N.H.), 1 hour at room temperature. Plates were flicked and blotted dry. Monoclonal antibodies were diluted to 0.04 μg/ml in PBST (Abbott Bioresearch Center, Worcester, Mass.)/10% Superblock and 50 μL of each was added to each well (2 ng/well) of the pre-blocked ELISA plate and incubated for 1 hour at room temperature. Wells were washed 3 times with PBS/0.1% Tween-20. ^3H-PGE2 (Perkin Elmer # NET-428, Waltham, Mass.) was diluted in PBST/10% Superblock to 6 nM (2× stock). Each prostaglandin (Cayman Chemicals, Ann Arbor, Mich.) was prepared in PBST+10% Superblock at various concentrations ranging from 2000 μM (2× stock) to 0.00004 μM (2×). Equal volumes of the ^3H-PGE2 solution and of each prostaglandin dilution were mixed. Fifty microliters of this mixture was then added to each well of the plate and incubated for 1 hour at room temperature. Wells were washed manually 6 times with PBST/10% Superblock and 50 μL of scintillation fluid (Perkin Elmer # 6013621, Waltham, Mass.) added to each well. Plates were read using a TopCount reader (Perkin Elmer, Waltham, Mass.) with a 5 minute count delay. IC50 number was determined using GraphPad Prism 5 (GraphPad Software, La Jolla, Calif.). The cross reactivity index was then calculated by IC50 of PGE2/IC50 of other prostaglandin(s)

[3] = tested on: carrageenan-induced paw edema; assay: Carrageenan-induced footpad edema model; type: in vivo, C57.BL/6 mice
Procedure: Carrageenan-Induced Footpad Edema is an acute rodent model of innate immune function. The in vivo efficacy of mouse anti-PGE2 antibody 2B5-8.0 is assessed in a carragenan-induced paw edema model. The induction of paw inflammation with carrageenan is performed similarly as previously described (Joseph P. Portanova, et al. J. Exp. Med. 184: 883-891 (1996)). Intradermal (ID) injection of an inflammatory agent causes a rapid influx of neutrophils and fluid edema which peaks at approximately 4 hours, followed by an influx of macrophages and monocytes which peaks at approximately 48 hours. C57.BL/6 mice (8-10-week-old, Jackson Laboratories, Bar Harbor, Me.) were injected ID in the rear footpad with 30 μL of either PBS (left) or λ-carrageenen (Sigma Aldrich, St. Louis, Mo.) in PBS (right) at a concentration of 5.0 mg/mL (150 μg/mouse). Rear footpad thickness was measured by Dyer spring caliper model #310-119 at baseline (time=0), and 4 hours post carrageenan challenge. Significant difference for paw thickness was determined by comparing mean paw swelling for each treatment group to vehicle in a Student's two-tailed t-test. Mice were given a dose titration of an anti-PGE2 antibody (2B5-8.0) intraperitonially (IP) 18 hours prior to carrageenan challenge, or Indomethacin, PO 2 hours prior to challenge. The endpoint measured was the difference in paw swelling (edema) between right and left paws 4 hours after treatment.

B1: 2B5-8.0: recombinant anti-PGE2 antibody from solved 2B5 sequence; VH SEQ ID NO 42, VL SEQ ID NO 43 (antibody, V domains shown)
VH: QVQLQQSGPELVRPGSSVKISCKASGYTFTKYWLGWVKQRPGHGLEWIGDIYPGYDYTHYNEKFKDKATLTVDTSSSTAYMQLSSLTSEDSAIYYCARSDGSSTYWGQGTLVTVSA
VL: DVLMTQTPLSLPVSLGDQASISCTSSQNIVHSNGNTYLEWYLQRPGQSPKLLIYKVSNRFSGVPDRFSGSGSGTVFTLKISRVEAEDLGVYYCFQVSHVPYTFGGGTKLEIKR
Paw Swelling (AUC) (mm # days) [1]: 8.4 ± 1.3 mm # days | Bone Volume (mm^3) ([1]; micro CT tarsal bone volume): 1.6 ± 0.1 mm^3 | MAS (AUC) (Score # days) ([1]; treatment after disease onset): 57.4 ± 6.7 Score # days | PG Selectivity in ^3H-PGE2 competition ELISA (CRI %) 2,3-dinor-6-keto-PGF1α ([2]; 2,3-dinor-6-keto-PGF1α): 0.019% | PG Selectivity in ^3H-PGE2 competition ELISA (CRI %) 5(S)-HETE ([2]; 5(S)-HETE): <0.01% | PG Selectivity in ^3H-PGE2 competition ELISA (CRI %) 6-keto PGF1α ([2]; 6-keto PGF1α): 0.64% | PG Selectivity in ^3H-PGE2 competition ELISA (CRI %) 8-iso PGF2α ([2]; 8-iso PGF2α): 0.092% | PG Selectivity in ^3H-PGE2 competition ELISA (CRI %) 13,14-dihydroxyl-15-keto PGE2 ([2]; 13,14-dihydroxyl-15-keto PGE2): 0.012% | PG Selectivity in ^3H-PGE2 competition ELISA (CRI %) 15-keto PGE2 ([2]; 15-keto PGE2): 0.013% | PG Selectivity in ^3H-PGE2 competition ELISA (CRI %) 15R-Pinane TXA2 ([2]; 15R-Pinane TXA2): 0.00043% | PG Selectivity in ^3H-PGE2 competition ELISA (CRI %) 19R-hydroxy PGE2 ([2]; 19R-hydroxy PGE2): 0.09% | PG Selectivity in ^3H-PGE2 competition ELISA (CRI %) Arachidonic acid ([2]; Arachidonic acid): <0.01% | PG Selectivity in ^3H-PGE2 competition ELISA (CRI %) Carbaprostacyclin ([2]; Carbaprostacyclin): 0.18% | PG Selectivity in ^3H-PGE2 competition ELISA (CRI %) Carbocyclic TXA2 ([2]; Carbocyclic TXA2): 0.0005% | PG Selectivity in ^3H-PGE2 competition ELISA (CRI %) Iloprost ([2]; Iloprost): 0.01% | PG Selectivity in ^3H-PGE2 competition ELISA (CRI %) LTE4 ([2]; LTE4): 0.012% | PG Selectivity in ^3H-PGE2 competition ELISA (CRI %) PGA2 ([2]; PGA2): 0.04% | PG Selectivity in ^3H-PGE2 competition ELISA (CRI %) PGB2 ([2]; PGB2): 0.00038% | PG Selectivity in ^3H-PGE2 competition ELISA (CRI %) PGD2 ([2]; PGD2): <1 × 10^−4% | PG Selectivity in ^3H-PGE2 competition ELISA (CRI %) PGE1 ([2]; PGE1): 3.6% | PG Selectivity in ^3H-PGE2 competition ELISA (CRI %) PGE2 ([2]; PGE2): 100% | PG Selectivity in ^3H-PGE2 competition ELISA (CRI %) PGF2α ([2]; PGF2α): 0.05% | PG Selectivity in ^3H-PGE2 competition ELISA (CRI %) PGI2 ([2]; PGI2): 0.16% | PG Selectivity in ^3H-PGE2 competition ELISA (CRI %) Pinane TXA2 ([2]; Pinane TXA2): 0.00033% | PG Selectivity in ^3H-PGE2 competition ELISA (CRI %) TXB2 ([2]; TXB2): <0.01% | Δ Paw Swelling (mm) ([3]; 10 mg/kg, i.p., 18 hours prior to carrageenan, 4 hours post challenge): 0.529 ± 0.04 mm | % Inhibition ([3]; 10 mg/kg, i.p., paw swelling 4 hours post challenge): 38 ± 4.6% | maximal inhibition of paw swelling ([3]; at 10 mg/kg): 40-50%
